Experimental data published in patent US20240287138A1 (Merck Sharp & Dohme, published 2024).
Numbered stars: 1 amine (or outer) side, 2 acyl side, 3 side chain; on linkers, the order of the positions; unused ones are H or OH. Bridge positions count the residues as written; N and C are the ends. Square brackets hold non-standard residues; d marks the D form. Primed or numbered codes have the meaning given here. * marks the point of attachment. RbOHPhe4CONH2 = (2S,3R)-2-amino-3-(4-carbamoylphenyl)-3-hydroxypropanoic acid, NC(=O)c1ccc([C@@H](O[*:3])[C@H](N[*:1])C(=O)[*:2])cc1; bhcLeu = (1R,3S)-3-aminocyclopentane-1-carboxylic acid, O=C([C@@H]1CC[C@H](N[*:1])C1)[*:2]; Trp(βS-Me,7-OMe) = COc1cccc2c([C@H](C)[C@H](N)C(=O)O)c[nH]c12; dPro(trans-4-NMe2) = CN(C)[C@@H]1CN[C@@H](C(=O)O)C1; Trp(7-CN) = N#Cc1cccc2c(C[C@H](N)C(=O)O)c[nH]c12; Trp(7-Cl) = N[C@@H](Cc1c[nH]c2c(Cl)cccc12)C(=O)O; Biotin = O=C1N[C@H]2[C@H](CS[C@H]2CCCCC(=O)*)N1; Phe(4-CONH2) = NC(=O)c1ccc(C[C@H](N)C(=O)O)cc1; Phe(4-COOH) = N[C@@H](Cc1ccc(C(=O)O)cc1)C(=O)O; Trp(7-aza) = N[C@@H](Cc1c[nH]c2ncccc12)C(=O)O; Pip(4-aza) = O=C(O)[C@@H]1CNCCN1; 4Pal = N[C@@H](Cc1ccncc1)C(=O)O; NMeE = CN[C@@H](CCC(=O)O)C(=O)O; dHyp = O=C(O)[C@H]1C[C@H](O)CN1; 40Me3Pal = not defined here; Pipt5OH = not defined here; αMeS = C[C@](N)(CO)C(=O)O; Nle = CCCC[C@H](N)C(=O)O; Pip2c = not defined here; Ahp′ = not defined here; AEA = NCCOCC(=O)O; Sar = CNCC(=O)O

T1: C-terminally 6His-tagged human soluble TNFR1 (sTNFR1, residues 1-211), purified from a Sf21 baculovirus … (human)
T1 construct: ID NO; The text says 'residues 1-211'; also called sTNFR1-6His; ID NO; P1
T1 chain: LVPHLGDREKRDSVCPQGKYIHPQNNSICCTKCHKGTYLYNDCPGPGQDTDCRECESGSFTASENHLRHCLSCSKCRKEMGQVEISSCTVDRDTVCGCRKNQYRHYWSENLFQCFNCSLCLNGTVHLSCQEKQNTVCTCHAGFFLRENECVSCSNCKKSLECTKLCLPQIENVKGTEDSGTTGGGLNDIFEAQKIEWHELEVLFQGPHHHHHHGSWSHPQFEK

T2: TNFR1 on THP-1 Lucia NF-κB reporter cells (UniProt P19438 30-455, limits assumed)
T2 sequence (looked up): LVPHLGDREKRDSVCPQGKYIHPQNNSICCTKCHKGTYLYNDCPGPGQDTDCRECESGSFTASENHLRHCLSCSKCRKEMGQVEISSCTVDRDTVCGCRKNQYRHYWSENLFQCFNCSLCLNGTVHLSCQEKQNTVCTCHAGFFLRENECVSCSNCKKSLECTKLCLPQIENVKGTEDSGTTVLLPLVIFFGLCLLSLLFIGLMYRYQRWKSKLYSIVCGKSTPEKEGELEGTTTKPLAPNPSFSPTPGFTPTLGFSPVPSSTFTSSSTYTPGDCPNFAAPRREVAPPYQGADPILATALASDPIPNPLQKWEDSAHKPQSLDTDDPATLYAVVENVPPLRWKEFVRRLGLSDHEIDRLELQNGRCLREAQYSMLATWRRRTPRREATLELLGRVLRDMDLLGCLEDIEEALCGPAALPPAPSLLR

T3: TNFR1 on THP-1 Lucia NF-kB reporter cells (UniProt P19438 30-455, limits assumed)
T3 sequence (looked up): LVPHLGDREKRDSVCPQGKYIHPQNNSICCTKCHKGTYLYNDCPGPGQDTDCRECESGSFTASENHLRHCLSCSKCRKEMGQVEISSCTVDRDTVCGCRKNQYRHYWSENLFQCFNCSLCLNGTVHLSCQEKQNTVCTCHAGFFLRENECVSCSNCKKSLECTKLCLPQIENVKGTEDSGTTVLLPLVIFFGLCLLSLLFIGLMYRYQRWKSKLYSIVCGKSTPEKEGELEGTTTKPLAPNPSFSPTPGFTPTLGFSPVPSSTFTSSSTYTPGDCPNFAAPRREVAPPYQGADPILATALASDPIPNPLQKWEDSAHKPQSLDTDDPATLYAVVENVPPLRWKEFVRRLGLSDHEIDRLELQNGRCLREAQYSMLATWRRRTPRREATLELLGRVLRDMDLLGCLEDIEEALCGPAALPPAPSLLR


How the values were obtained:
[1] = molecular target: T1, C-terminally 6His-tagged human soluble …; experiment: TR-FRET binding assay, probe peptide with sTNFR1-6His (0.25 nM)
[2] = molecular target: T2, TNFR1 on THP-1 Lucia NF-κB reporter …; experiment: cell-based or functional assay
[3] = molecular target: T3, TNFR1 on THP-1 Lucia NF-kB reporter …; experiment: cell-based or functional assay

THP-1 IC50 [3] [nM] | Binder | other results
 | {CH2CO}-FYSW[Sar]NYWSYY[Sar]WCG[AEA]K(Biotin)-NH2 (thioether N-14; SMILES CN1CC(=O)N[C@@H](CC(N)=O)C(=O)N[C@@H](Cc2ccc(O)cc2)C(=O)N[C@@H](Cc2c[nH]c3ccccc23)C(=O)N[C@@H](CO)C(=O)N[C@@H](Cc2ccc(O)cc2)C(=O)N[C@@H](Cc2ccc(O)cc2)C(=O)N(C)CC(=O)N[C@@H](Cc2c[nH]c3ccccc23)C(=O)N[C@H](C(=O)NCC(=O)NCCOCC(=O)N[C@@H](CCCCNC(=O)CCCC[C@@H]2SC[C@@H]3NC(=O)N[C@@H]32)C(N)=O)CSCC(=O)N[C@@H](Cc2ccccc2)C(=O)N[C@@H](Cc2ccc(O)cc2)C(=O)N[C@@H](CO)C(=O)N[C@@H](Cc2c[nH]c3ccccc23)C1=O, Synthetic thioether macrocycle made by Procedure A, with a Gly-Aea spacer and Lys(biotin) on the carboxy group of the C-terminal cysteine; also called biotin-tagged B0372 peptide) | Kd [1]: ~100 nM
 | cyclo([bhcLeu][Nle][4Pal][Pip(4-aza)][Trp(7-aza)][dPro(trans-4-NMe2)]N[Phe(4-COOH)][Trp(7-CN)][αMeS][Phe(4-COOH)][RbOHPhe4CONH2][Sar][Trp(βS-Me,7-OMe)]) (SMILES CCCC[C@@H]1NC(=O)[C@@H]2CC[C@@H](C2)NC(=O)[C@H]([C@@H](C)c2c[nH]c3c(OC)cccc23)NC(=O)CN(C)C(=O)[C@H]([C@H](O)c2ccc(C(N)=O)cc2)NC(=O)[C@H](Cc2ccc(C(=O)O)cc2)NC(=O)[C@](C)(CO)NC(=O)[C@H](Cc2c[nH]c3c(C#N)cccc23)NC(=O)[C@H](Cc2ccc(C(=O)O)cc2)NC(=O)[C@H](CC(N)=O)NC(=O)[C@H]2C[C@H](N(C)C)CN2C(=O)[C@H](Cc2c[nH]c3ncccc23)NC(=O)[C@@H]2CNCCN2C(=O)[C@H](Cc2ccncc2)NC1=O) [SEQ ID NO. 287 (Example No. 287) macrocyclic peptide] | THP-1 IC50 [2]: 1.7 nM
1.5 | cyclo([bhcLeu][Ahp′][SbMe4Pal]HW[dHyp]N[Phe(4-COOH)][Trp(7-CN)][αMeS][Phe(4-CONH2)][Phe(4-CONH2)][Sar][Trp(βS-Me,7-OMe)]) (reading uncertain; also: printed as cyclo(bhcLeu-Ahp-SbMe4Pal-H-W-dProt4OH-N-Phe4COOH-Trp7CN-aMeS-Phe4CONH2-Phe4CONH2-Sar-SbMeW7OMe)) [SEQ ID NO. 98] | 
0.7 | cyclo([bhcLeu][Nle][4Pal][Pipt5OH]W[dHyp][RbOHAsn][4Pal][Trp(7-CN)][αMeS][Phe(4-CONH2)][Phe(4-COOH)][Sar][Trp(βS-Me,7-OMe)]) (reading uncertain; also: printed as cyclo(bhcLeu-Nle-4Pal-Pipt5OH-W-dProt4OH-RbOHAsn-4Pal-Trp7CN-aMeS-Phe4CONH2-Phe4COOH-Sar-SbMeW7OMe)) [SEQ ID NO. 78] | 
1.9 | cyclo([bhcLeu][Nle][4Pal][Pipt5OH]W[dHyp]N[AlaPyrim4COOH][Trp(7-Cl)][αMeS][Phe(4-CONH2)][Phe(4-COOH)][Sar][Trp(βS-Me,7-OMe)]) (reading uncertain; also: printed as cyclo(bhcLeu-Nle-4Pal-Pipt5OH-W-dProt4OH-N-AlaPyrim4COOH-Trp7Cl-aMeS-Phe4CONH2-Phe4COOH-Sar-SbMeW7OMe)) [SEQ ID NO. 88] | 
1.3 | cyclo([bhcLeu][Nle][4Pal][Pip2c]W[NMeE]N[40Me3Pal][Trp(7-Cl)][αMeS][Phe(4-COOH)]Y[Sar][Trp(βS-Me,7-OMe)]) (reading uncertain; also: printed as cyclo(bhcLeu-Nle-4Pal-Pip2c-W-NMeE-N-40Me3Pal-Trp7Cl-aMeS-Phe4COOH-Y-Sar-SbMeW7OMe)) [SEQ ID NO. 100] | 
